Experimental data published in paper doi:10.1101/2022.10.27.514150 (bioRxiv, 2022).

How the values were obtained:
Gluc1-ΔNp73α FL = molecular target: T1, Gluc1-ΔNp73α FL (UniProt O15350-8 1-587); assay: split reporter
T1 sequence (looked up): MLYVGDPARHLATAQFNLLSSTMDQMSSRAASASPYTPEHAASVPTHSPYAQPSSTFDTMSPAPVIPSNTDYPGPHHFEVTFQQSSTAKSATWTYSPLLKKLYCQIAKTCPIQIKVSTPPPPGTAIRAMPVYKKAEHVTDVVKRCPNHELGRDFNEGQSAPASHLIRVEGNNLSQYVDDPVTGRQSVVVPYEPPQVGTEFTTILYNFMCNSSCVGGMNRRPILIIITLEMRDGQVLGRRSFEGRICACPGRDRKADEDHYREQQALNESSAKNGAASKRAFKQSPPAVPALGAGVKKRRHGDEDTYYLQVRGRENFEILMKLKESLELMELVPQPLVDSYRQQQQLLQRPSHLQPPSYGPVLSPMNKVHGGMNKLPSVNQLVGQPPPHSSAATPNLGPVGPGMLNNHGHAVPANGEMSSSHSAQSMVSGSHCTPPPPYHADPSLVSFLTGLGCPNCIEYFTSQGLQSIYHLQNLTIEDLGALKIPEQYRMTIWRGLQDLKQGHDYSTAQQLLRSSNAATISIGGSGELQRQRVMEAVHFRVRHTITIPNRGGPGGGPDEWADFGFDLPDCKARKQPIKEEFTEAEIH

Gluc1-ΔN(74–348) = molecular target: T2, Gluc1-ΔN(74–348) (UniProt O15350-8 74-348); assay: split reporter
T2 sequence (looked up): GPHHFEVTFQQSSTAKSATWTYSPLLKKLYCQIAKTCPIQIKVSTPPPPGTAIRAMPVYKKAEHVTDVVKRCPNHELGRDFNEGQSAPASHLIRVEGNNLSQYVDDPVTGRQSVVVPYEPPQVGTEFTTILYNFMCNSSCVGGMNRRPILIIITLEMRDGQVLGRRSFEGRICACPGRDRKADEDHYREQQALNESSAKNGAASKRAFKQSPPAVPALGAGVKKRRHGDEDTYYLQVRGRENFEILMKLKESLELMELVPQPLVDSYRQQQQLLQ

Gluc1-TAp73α = molecular target: T3, Gluc1-TAp73α (UniProt O15350 1-636); assay: split reporter
T3 sequence (looked up): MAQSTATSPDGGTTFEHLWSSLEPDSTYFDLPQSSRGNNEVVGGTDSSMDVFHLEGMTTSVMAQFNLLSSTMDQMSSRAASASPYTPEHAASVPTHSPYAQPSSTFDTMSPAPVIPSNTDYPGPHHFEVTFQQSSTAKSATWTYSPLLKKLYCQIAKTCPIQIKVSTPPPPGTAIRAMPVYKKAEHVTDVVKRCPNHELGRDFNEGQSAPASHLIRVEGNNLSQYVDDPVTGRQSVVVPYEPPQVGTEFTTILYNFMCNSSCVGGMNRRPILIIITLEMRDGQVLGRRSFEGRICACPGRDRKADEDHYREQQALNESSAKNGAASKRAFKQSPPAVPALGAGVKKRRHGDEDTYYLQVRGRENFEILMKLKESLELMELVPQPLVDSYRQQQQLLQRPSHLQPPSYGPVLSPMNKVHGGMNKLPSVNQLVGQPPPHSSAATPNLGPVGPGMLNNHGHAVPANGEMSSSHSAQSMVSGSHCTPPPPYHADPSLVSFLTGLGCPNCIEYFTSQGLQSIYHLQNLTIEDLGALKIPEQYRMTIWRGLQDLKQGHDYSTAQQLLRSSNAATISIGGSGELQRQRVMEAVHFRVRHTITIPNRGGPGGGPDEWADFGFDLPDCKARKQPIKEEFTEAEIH

Gluc1-E2F4 = Gluc1-E2F4 (human, UniProt Q16254 1-413); assay: split reporter
[1] = molecular target: T4, minimal E2F4/DP1 heterodimer (E2F4s/DP1s) (human, UniProt Q16254 84-413; Q14186 199-350); assay: pull-down
T4 sequence (looked up) 1: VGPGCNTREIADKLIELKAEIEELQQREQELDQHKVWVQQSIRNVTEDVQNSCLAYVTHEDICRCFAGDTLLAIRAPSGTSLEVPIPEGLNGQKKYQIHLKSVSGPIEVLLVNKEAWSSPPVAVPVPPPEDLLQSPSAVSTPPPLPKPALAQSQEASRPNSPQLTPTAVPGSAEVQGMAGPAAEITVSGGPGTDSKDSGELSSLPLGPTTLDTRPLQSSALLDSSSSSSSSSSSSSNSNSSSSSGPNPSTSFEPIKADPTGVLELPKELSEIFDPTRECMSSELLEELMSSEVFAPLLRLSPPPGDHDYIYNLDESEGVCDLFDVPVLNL
T4 sequence (looked up) 2: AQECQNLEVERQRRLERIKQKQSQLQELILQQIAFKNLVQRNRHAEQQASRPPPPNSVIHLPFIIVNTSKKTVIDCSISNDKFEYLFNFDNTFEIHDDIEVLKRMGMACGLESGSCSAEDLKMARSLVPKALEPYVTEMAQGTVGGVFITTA

B1: Gluc2-E2F4 FL (natural protein)
chain: not shown
- normalized luminescence ratio (NLR) (Gluc1-ΔNp73α FL): > 20
- binding relative to ΔNp73α FL/E2F4 FL (Gluc1-ΔN(74–348)): 60%
- binding response relative to ΔNp73α (Gluc1-TAp73α): ~50%

B2: Gluc2-DP1 (natural protein, human, UniProt Q14186 1-410, looked up)
chain: MAKDAGLIEANGELKVFIDQNLSPGKGVVSLVAVHPSTVNPLGKQLLPKTFGQSNVNIAQQVVIGTPQRPAASNTLVVGSPHTPSTHFASQNQPSDSSPWSAGKRNRKGEKNGKGLRHFSMKVCEKVQRKGTTSYNEVADELVAEFSAADNHILPNESAYDQKNIRRRVYDALNVLMAMNIISKEKKEIKWIGLPTNSAQECQNLEVERQRRLERIKQKQSQLQELILQQIAFKNLVQRNRHAEQQASRPPPPNSVIHLPFIIVNTSKKTVIDCSISNDKFEYLFNFDNTFEIHDDIEVLKRMGMACGLESGSCSAEDLKMARSLVPKALEPYVTEMAQGTVGGVFITTAGSTSNGTRFSASDLTNGADGMLATSSNGSQYSGSRVETPVSYVGEDDEEDDDFNENDEDD
- normalized luminescence ratio (NLR) (Gluc1-E2F4): ~500

B3: Gluc2-E2F(1–90) (domain or fragment)
chain: not shown
- binding relative to ΔNp73α FL/E2F4 FL (Gluc1-ΔNp73α FL): 20%

B4: Gluc2-E2F(1–336) (domain or fragment)
chain: not shown
- binding relative to ΔNp73α FL/E2F4 FL (Gluc1-ΔNp73α FL): 60%

B5: MBP-ΔN(1-348) (domain or fragment, UniProt O15350-8 1-348, looked up)
chain: MLYVGDPARHLATAQFNLLSSTMDQMSSRAASASPYTPEHAASVPTHSPYAQPSSTFDTMSPAPVIPSNTDYPGPHHFEVTFQQSSTAKSATWTYSPLLKKLYCQIAKTCPIQIKVSTPPPPGTAIRAMPVYKKAEHVTDVVKRCPNHELGRDFNEGQSAPASHLIRVEGNNLSQYVDDPVTGRQSVVVPYEPPQVGTEFTTILYNFMCNSSCVGGMNRRPILIIITLEMRDGQVLGRRSFEGRICACPGRDRKADEDHYREQQALNESSAKNGAASKRAFKQSPPAVPALGAGVKKRRHGDEDTYYLQVRGRENFEILMKLKESLELMELVPQPLVDSYRQQQQLLQ
- binding result [1]: binds
